Measurements from patent US20210369854A1.

Columns and labels:
[1] = molecular target: purified human CD5 ectodomain (human) (UniProt P06127); assay: BLI (Octet Red96), antibody on anti-human Fc biosensors, 50 nM CD5 ectodomain, 25 C
[2] = molecular target: human CD5 on cells (MOLT-4 human T lymphoblast cell line; primary human T-cells) (human) (UniProt P06127); assay: flow cytometry on primary human T-cells, antibody titration, fluorophore-conjugated (AF488) secondary anti-IgG, MFI

Response (nm) [1]: 0.67 nm | EC50 (read off the curve) [2]: 0.03 nM
B1: anti-CD5 antibody 5D7 hIgG1 (humanized version of murine antibody 5D7) (antibody, V domains shown)
VH: QVTLKESGPVLVKPTETLTLTCTFSGFSLSTSGMGVGWIRQAPGKGLEWVAHIWWDDDVYYNPSLKSRLTITKDASKDQVSLKLSSVTAADTAVYYCVRRRATGTGFDYWGQGTLVTVSS
VL: NIVMTQSPSSLSASVGDRVTITCQASQDVGTAVAWYQQKPDQSPKLLIYWTSTRHTGVPDRFTGSGSGTDFTLTISSLQPEDIATYFCHQYNSYNTFGSGTKLEIK
